Where no end group is shown, it is not given here. FAM = 5(6)-carboxyfluorescein; Ahx = NCCCCCC(=O)O
Molecular target: T1, recombinant mouse macrophage mannose receptor rmMMR/CD206 (mouse, UniProt Q61830 20-1388)
T1 construct: macrophage mannose receptor (CD206/MRC1), mouse, recombinant; take the limits from the vendor's data sheet; also called MRC1; mouse recombinant CD206; source: bought: R&D Systems (catalog number 2535-MM-050)
T1 sequence (looked up): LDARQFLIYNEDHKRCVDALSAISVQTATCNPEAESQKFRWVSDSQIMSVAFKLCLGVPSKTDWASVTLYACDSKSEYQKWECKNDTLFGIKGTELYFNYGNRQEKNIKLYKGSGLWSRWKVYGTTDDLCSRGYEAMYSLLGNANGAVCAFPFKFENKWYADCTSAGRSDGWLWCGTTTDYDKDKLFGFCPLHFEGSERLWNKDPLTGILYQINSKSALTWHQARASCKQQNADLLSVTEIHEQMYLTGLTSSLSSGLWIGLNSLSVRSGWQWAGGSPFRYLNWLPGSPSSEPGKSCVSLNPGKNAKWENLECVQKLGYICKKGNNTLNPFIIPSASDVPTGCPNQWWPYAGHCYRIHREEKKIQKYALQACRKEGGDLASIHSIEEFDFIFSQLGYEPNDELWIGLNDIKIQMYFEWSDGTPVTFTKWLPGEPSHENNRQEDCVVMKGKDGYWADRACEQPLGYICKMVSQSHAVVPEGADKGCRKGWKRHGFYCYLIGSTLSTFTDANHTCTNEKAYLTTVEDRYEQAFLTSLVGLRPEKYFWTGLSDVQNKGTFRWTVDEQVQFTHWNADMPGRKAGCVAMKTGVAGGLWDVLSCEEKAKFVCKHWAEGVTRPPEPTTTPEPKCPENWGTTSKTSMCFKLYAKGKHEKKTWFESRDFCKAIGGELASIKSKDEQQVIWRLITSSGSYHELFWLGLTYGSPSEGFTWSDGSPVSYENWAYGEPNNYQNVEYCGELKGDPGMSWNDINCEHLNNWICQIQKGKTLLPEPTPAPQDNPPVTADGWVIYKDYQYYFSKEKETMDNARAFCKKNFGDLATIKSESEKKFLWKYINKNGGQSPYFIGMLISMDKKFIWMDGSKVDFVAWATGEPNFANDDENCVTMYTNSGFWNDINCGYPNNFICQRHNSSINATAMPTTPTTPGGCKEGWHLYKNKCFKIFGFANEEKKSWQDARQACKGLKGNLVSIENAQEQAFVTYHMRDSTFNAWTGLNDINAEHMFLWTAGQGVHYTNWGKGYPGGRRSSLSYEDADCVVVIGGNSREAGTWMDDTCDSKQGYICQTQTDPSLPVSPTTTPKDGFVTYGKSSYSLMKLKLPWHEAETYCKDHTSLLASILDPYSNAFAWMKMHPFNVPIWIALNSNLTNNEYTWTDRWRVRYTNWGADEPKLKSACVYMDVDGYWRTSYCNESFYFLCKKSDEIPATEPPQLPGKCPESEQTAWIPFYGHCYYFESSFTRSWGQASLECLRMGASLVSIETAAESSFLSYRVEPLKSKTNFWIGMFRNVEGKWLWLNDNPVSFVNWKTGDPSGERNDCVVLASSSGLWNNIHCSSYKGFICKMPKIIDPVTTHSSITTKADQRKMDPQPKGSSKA
Assay: fluorescence polarisation; fluorescence anisotropy in solution, kinetic mode, 50 nM FAM peptide and 1 µM protein (pseudo first-order), 25 °C, 10 mM Na-HEPES, 150 mM NaCl, 1 mM CaCl2, 0.1% Pluronic F-127, pH 7.4
Conditions: both partners purified

B1: FAM-CSPGAK (peptide)
peptide: {FAM-Ahx}-CSPGAK
notes: also called linear CSPGAK motif; source: synthetic peptide; bought: TAG Copenhagen
- binding result: binds

— paper PMC5676682, “Precision Targeting of Tumor Macrophages with a CD206 Binding Peptide” (Scientific Reports, 2017)
